These results are taken from patent publication US20100215619A1.

Assay [1] has as its target HLA-DRB4*0101 (human). The assay is described as follows: competition binding. Particulars: modification not given.
For assay [2], the target named is HLA-DRB1*0101 (human). The experiment in a line: competition binding. Particulars: modification not given.

Turning to VGYVDDTQFVRFDSD [p6], the IC50 (as a rule, the concentration at which inhibition is half-maximal) in assay [1] stood at 90 µM.

Turning to GTLRGYYNQSEAGSH [p15], the IC50 in assay [2] was determined as 0.456 µM.
